Measurements published in PMC5415356.

Target: PATJ (UniProt Q8NI35)
Experiment: reciprocal co-IP (Flag or HA), immunoblot
Conditions: reference: wild type HA-Amot-p130; sites S176

binding against the reference: lost
Substance: Amot-p130 (Angiomotin) (from UniProt Q8VHG2) S176A
